# B1: Protein PTHB1 (Homo sapiens), Q3SYG4 (parent)
# chain: MSLFKARDWWSTILGDKEEFDQGCLCLANVDNSGNGQDKIIVGSFMGYLRIFSPHPAKTGDGAQAEDLLLEVDLRDPVLQVEVGKFVSGTEMLHLAVLHSRKLCVYSVSGTLGNVEHGNQCQMKLMYEHNLQRTACNMTYGSFGGVKGRDLICIQSMDGMLMVFEQESYAFGRFLPGFLLPGPLAYSSRTDSFLTVSSCQQVESYKYQVLAFATDADKRQETEQQKLGSGKRLVVDWTLNIGEQALDICIVSFNQSASSVFVLGERNFFCLKDNGQIRFMKKLDWSPSCFLPYCSVSEGTINTLIGNHNNMLHIYQDVTLKWATQLPHIPVAVRVGCLHDLKGVIVTLSDDGHLQCSYLGTDPSLFQAPNVQSRELNYDELDVEMKELQKIIKDVNKSQGVWPMTEREDDLNVSVVVSPNFDSVSQATDVEVGTDLVPSVTVKVTLQNRVILQKAKLSVYVQPPLELTCDQFTFEFMTPDLTRTVSFSVYLKRSYTPSELEGNAVVSYSRPTDRNPDGIPRVIQCKFRLPLKLICLPGQPSKTASHKITIDTNKSPVSLLSLFPGFASQSDDDQVNVMGFHFLGGARITVLASKTSQRYRIQSEQFEDLWLITNELILRLQEYFEKQGVKDFACSFSGSIPLQEYFELIDHHFELRINGEKLEELLSERAVQFRAIQRRLLARFKDKTPAPLQHLDTLLDGTYKQVIALADAVEENQGNLFQSFTRLKSATHLVILLIALWQKLSADQVAILEAAFLPLQEDTQELGWEETVDAAISHLLKTCLSKSSKEQALNLNSQLNIPKDTSQLKKHITLLCDRLSKGGRLCLSTDAAAPQTMVMPGGCTTIPESDLEERSVEQDSTELFTNHRHLTAETPRPEVSPLQGVSE
# partner: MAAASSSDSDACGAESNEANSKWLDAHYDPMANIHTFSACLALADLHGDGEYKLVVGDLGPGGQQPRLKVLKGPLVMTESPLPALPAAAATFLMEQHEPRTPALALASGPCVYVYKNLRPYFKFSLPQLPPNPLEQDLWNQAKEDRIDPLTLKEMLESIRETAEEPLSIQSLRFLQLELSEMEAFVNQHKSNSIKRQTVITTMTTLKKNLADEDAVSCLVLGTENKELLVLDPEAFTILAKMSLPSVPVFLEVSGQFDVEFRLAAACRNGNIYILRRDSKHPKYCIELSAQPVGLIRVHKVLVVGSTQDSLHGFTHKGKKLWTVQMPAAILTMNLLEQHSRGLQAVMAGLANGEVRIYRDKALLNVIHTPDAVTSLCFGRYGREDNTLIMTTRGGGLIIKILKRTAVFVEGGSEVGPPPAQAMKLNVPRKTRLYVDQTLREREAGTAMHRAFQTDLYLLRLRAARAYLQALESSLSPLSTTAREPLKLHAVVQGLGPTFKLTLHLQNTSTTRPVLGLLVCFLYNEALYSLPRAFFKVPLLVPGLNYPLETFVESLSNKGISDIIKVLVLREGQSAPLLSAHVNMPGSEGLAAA
# Variants of: B1
# Conditions: with bbs1_human BBS1, Q8NFJ9
row,effect of a mutation on the interaction,Variant
1,with no effect,L681E
2,with no effect,N448K
3,with no effect,N448A
4,with no effect,V577E
5,with no effect,P556K
6,with no effect,S667E
7,with no effect,S777K
8,with no effect,R528E
9,with no effect,V879K
10,with no effect,P802A
11,with no effect,Y599A
12,with no effect,E647A
13,disrupting interaction strength,G841E
14,with no effect,A712E
15,with no effect,D762K
16,with no effect,D762E
17,with no effect,F632K
18,with no effect,F632A
19,with no effect,A775E
20,disrupting interaction strength,A775T
21,with no effect,L666E
22,with no effect,V442E
23,with no effect,V485E
24,with no effect,D773K
25,with no effect,D773A
26,disrupting interaction strength,T482P

row,effect of a mutation on the interaction,Variant
1,with no effect,Q471K
2,with no effect,Q471E
3,with no effect,L680A
4,with no effect,L411E
5,with no effect,L465A
6,disrupting interaction strength,T613I
7,with no effect,I550E
8,with no effect,R824A
9,with no effect,F756K
10,with no effect,L491K
11,with no effect,L491E
12,with no effect,K492A
13,with no effect,T805E
14,with no effect,N716K
15,with no effect,G638E
16,with no effect,E853K
17,with no effect,I707K
18,with no effect,A739K
19,with no effect,Q798K
20,with no effect,L529E
21,with no effect,Y623A
22,with no effect,H778K
23,with no effect,P464A
24,with no effect,D859A
25,with no effect,K704A
26,with no effect,E753A

row,effect of a mutation on the interaction,Variant
1,with no effect,P537A
2,with no effect,S561A
3,with no effect,L611K
4,with no effect,E664A
5,with no effect,D830E
6,disrupting interaction strength,P691S
7,with no effect,P691A
8,with no effect,F646E
9,with no effect,D410K
10,with no effect,D410E
11,with no effect,V413K
12,with no effect,L793K
13,with no effect,A746K
14,with no effect,Q791K
15,with no effect,Q791E
16,disrupting interaction strength,D747K
17,with no effect,V629E
18,with no effect,P479K
19,disrupting interaction strength,T771S
20,with no effect,T771K
21,with no effect,Q835K
22,with no effect,Q760E
23,with no effect,V713K
24,with no effect,D422K
25,with no effect,R407K
26,with no effect,R669E

row,effect of a mutation on the interaction,Variant
1,with no effect,D480A
2,with no effect,F673E
3,with no effect,G502A
4,with no effect,Q672A
5,with no effect,Q597A
6,with no effect,L591E
7,with no effect,V522E
8,with no effect,V522K
9,with no effect,I649K
10,with no effect,I649E
11,with no effect,D711A
12,with no effect,P511E
13,with no effect,F724A
14,with no effect,I519K
15,with no effect,C816E
16,with no effect,V506A
17,with no effect,I534A
18,with no effect,C826A
19,disrupting interaction strength,M837V
20,with no effect,Q569A
21,with no effect,Q569K
22,with no effect,T688A
23,with no effect,C843K
24,with no effect,C843E
25,with no effect,L779K
26,with no effect,S568E

row,effect of a mutation on the interaction,Variant
1,with no effect,F476K
2,with no effect,F476A
3,disrupting interaction strength,S570L
4,with no effect,S570A
5,with no effect,D573K
6,with no effect,D573A
7,with no effect,M477E
8,with no effect,I601E
9,with no effect,L446E
10,with no effect,M839E
11,with no effect,T549A
12,with no effect,T549K
13,with no effect,L609K
14,with no effect,T434K
15,with no effect,T861A
16,with no effect,P877A
17,with no effect,R726A
18,with no effect,R726K
19,with no effect,D517A
20,with no effect,L733K
21,with no effect,L736A
22,with no effect,Y495A
23,with no effect,P847A
24,with no effect,G538E
25,disrupting interaction strength,A754G
26,with no effect,R678E

row,effect of a mutation on the interaction,Variant
1,with no effect,G659A
2,with no effect,W768K
3,disrupting interaction strength,E607V
4,with no effect,L533E
5,with no effect,Q627A
6,with no effect,P520K
7,with no effect,R483E
8,with no effect,I801A
9,with no effect,Q453E
10,with no effect,V505K
11,with no effect,V505A
12,with no effect,V734E
13,with no effect,A831E
14,with no effect,K547A
15,with no effect,G767E
16,with no effect,V424K
17,with no effect,V424E
18,disrupting interaction strength,G718S
19,with no effect,C525E
20,with no effect,E887A
21,with no effect,A427E
22,disrupting interaction strength,R600G
23,with no effect,Q748A
24,with no effect,P758E
25,with no effect,F624A
26,with no effect,S418E

row,effect of a mutation on the interaction,Variant
1,with no effect,T813K
2,with no effect,N553A
3,with no effect,S820K
4,with no effect,I738E
5,with no effect,V415K
6,with no effect,T496E
7,with no effect,L759A
8,with no effect,L620K
9,with no effect,T484K
10,with no effect,R521E
11,disrupting interaction strength,R521T
12,with no effect,V772E
13,with no effect,V706K
14,with no effect,S507A
15,with no effect,K743A
16,with no effect,G584A
17,with no effect,F527E
18,with no effect,F653A
19,disrupting interaction strength,T702C
20,with no effect,T702K
21,with no effect,V432K
22,with no effect,A544K
23,with no effect,S558A
24,with no effect,R854K
